Laboratory results reported in US20120316071A1 (published 2012).
Values belong to the binder of their own block, whether it stands above or below them.

What was measured:
[1] = target: T1, rHuman Notch-1/Fc Chimera, CF (R&D Systems Cat#3647-TK) (human, UniProt P46531 19-526); assay: Multispot ECL (MSD) assay, antigen spotted on plate, Fab at 0.312 µM; blank spot 1977
T1 construct: Bought recombinant protein; Fc part of the bought chimera not given

[2] = target: T2, rHuman P-Cadherin/Fc Chimera, CF (R&D Systems Cat#861-PC) (human, UniProt P22223 108-654); assay: as above
T2 construct: Bought recombinant protein; Fc part of the bought chimera not given

[3] = target: T3, rHuman Erythropoietin R/Fc Chimera, CF (R&D Systems Cat#963-ER) (human, UniProt P19235 25-250); assay: as above
T3 construct: Bought recombinant protein; also called EPO R/Fc; Epo R; Fc part of the bought chimera not given
T3 sequence (looked up): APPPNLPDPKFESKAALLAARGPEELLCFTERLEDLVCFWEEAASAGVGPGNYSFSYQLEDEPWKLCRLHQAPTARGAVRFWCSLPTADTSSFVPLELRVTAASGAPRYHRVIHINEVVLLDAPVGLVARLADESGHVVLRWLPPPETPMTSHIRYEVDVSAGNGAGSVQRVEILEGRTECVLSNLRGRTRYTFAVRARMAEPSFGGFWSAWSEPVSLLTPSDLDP

[4] = target: T4, rHuman EGF R/Fc Chimera, CF (R&D Systems Cat#344-ER) (human, UniProt P00533 25-645); assay: as above
T4 construct: Bought recombinant protein; also called epidermal growth factor receptor (EGF R); Fc part of the bought chimera not given

[5] = target: T5, rHuman ErbB2/Fc Chimera, CF (R&D Systems Cat#1129-ER) (human, UniProt P04626 23-652); assay: as above
T5 construct: Bought recombinant protein; also called human epidermal growth factor 2 receptor (ErbB2); Fc part of the bought chimera not given

[6] = target: T6, rHuman IGF-1 sR, (IGF-1 sR), CF (R&D Systems Cat#391-GR) (human, UniProt P08069 31-932); assay: as above
T6 construct: Bought recombinant soluble receptor; also called insulin-like growth factor-1 soluble receptor

[7] = target: T7, Recombinant Human DLL4 (R&D Systems Cat#1506-D4/CF) (human, UniProt Q9NR61 27-524); assay: as above
T7 construct: Bought recombinant protein; also called delta-like protein 4; rHuman DLL4

[8] = target: T8, rHuman HGF R/c-MET/Fc Chimera, CF (R&D Systems Cat#358-MT/CF) (human, UniProt P08581 25-932); assay: as above
T8 construct: Bought recombinant protein; also called HGF R/Fc; hepatocyte growth factor receptor (HGF R/c-Met); Fc part of the bought chimera not given

[9] = target: T9, rHuman CD44/Fc Chimera, CF (R&D Systems Cat#3660-CD) (human, UniProt P16070 21-220); assay: as above
T9 construct: Bought recombinant protein; Fc part of the bought chimera not given

[10] = target: T10, rHuman P-Cadherin/Fc Chimera, CF (R&D Systems Cat#861-PC) (human, UniProt P22223 108-654); assay: Multispot ECL (MSD) titration; antigen spotted on plate; Fab 14.5 nM; blank spot 117
T10 construct: Bought Fc chimera; Fc part of the bought chimera not given

[11] = target: T11, rHuman IGF-1 sR (IGF-1 sR), CF (R&D Systems Cat#391-GR) (human, UniProt P08069 31-932); assay: as above
T11 construct: Bought soluble receptor; also called insulin-like growth factor-1 soluble receptor

[12] = target: T12, rHuman ErbB2/Fc Chimera, CF (R&D Systems Cat#1129-ER) (human, UniProt P04626 23-652); assay: as above
T12 construct: Bought Fc chimera; also called human epidermal growth factor 2 receptor; Fc part of the bought chimera not given

[13] = target: T13, rHuman CD44/Fc Chimera, CF (R&D Systems Cat#3660-CD) (human, UniProt P16070 21-220); assay: MSD multispot ECL, antigen spotted on plate; Fab 0.00797 uM; blank spot 364
T13 construct: Bought recombinant protein; Fc part of the bought chimera not given

[14] = target: T14, rHuman EGF R/Fc Chimera, CF (R&D Systems Cat#344-ER) (human, UniProt P00533 25-645); assay: as above
T14 construct: Bought recombinant protein; also called epidermal growth factor receptor; Fc part of the bought chimera not given

[15] = target: T15, rHuman IGF-1 sR, CF (R&D Systems Cat#391-GR) (human, UniProt P08069 31-932); assay: as above
T15 construct: Bought recombinant soluble receptor; also called insulin-like growth factor-1 soluble receptor

[16] = target: T16, rHuman Notch-1/Fc Chimera, CF (R&D Systems Cat#3647-TK) (human, UniProt P46531 19-526); assay: as above
T16 construct: Bought recombinant protein; Fc part of the bought chimera not given

[17] = target: T17, rHuman P-Cadherin/Fc Chimera, CF (R&D Systems Cat#861-PC) (human, UniProt P22223 108-654); assay: as above
T17 construct: Bought recombinant protein; Fc part of the bought chimera not given

[18] = target: T18, rHuman ErbB2/Fc Chimera, CF (R&D Systems Cat#1129-ER) (human, UniProt P04626 23-652); assay: as above
T18 construct: Bought recombinant protein; also called human epidermal growth factor 2 receptor; Fc part of the bought chimera not given

T8 sequence (P08581 25-932, change not shown): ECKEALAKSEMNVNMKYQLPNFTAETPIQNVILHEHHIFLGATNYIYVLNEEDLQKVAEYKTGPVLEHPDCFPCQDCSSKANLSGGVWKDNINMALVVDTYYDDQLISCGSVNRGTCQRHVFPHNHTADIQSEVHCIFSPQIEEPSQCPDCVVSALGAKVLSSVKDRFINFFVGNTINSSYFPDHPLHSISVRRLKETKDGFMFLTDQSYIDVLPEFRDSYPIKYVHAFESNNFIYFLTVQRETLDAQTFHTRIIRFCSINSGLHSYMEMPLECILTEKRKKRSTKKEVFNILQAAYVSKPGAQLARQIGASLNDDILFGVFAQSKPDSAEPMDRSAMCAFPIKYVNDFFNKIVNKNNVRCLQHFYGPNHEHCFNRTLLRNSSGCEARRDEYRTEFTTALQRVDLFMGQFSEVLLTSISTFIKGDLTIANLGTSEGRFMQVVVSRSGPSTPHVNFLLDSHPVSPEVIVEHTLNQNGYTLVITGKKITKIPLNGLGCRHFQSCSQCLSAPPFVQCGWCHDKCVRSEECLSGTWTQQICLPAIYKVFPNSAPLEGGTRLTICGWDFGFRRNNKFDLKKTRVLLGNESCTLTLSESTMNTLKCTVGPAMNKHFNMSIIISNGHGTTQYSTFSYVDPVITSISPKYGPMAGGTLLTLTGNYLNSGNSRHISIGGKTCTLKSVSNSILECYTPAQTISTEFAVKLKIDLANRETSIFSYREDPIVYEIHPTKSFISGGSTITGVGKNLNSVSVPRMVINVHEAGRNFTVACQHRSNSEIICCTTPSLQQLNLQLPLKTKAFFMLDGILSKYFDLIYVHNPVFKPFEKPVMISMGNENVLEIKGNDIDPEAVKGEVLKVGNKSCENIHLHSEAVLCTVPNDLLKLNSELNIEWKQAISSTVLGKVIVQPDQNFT

ECL signal [1]: 4460 | ECL signal [2]: 7100 | ECL signal [3]: 5020 | ECL signal [4]: 4330 | ECL signal [5]: 3660 | ECL signal [6]: 3510 | ECL signal [7]: 5480 | ECL signal [8]: 4690 | ECL signal [9]: 4170
B1: Fab VH1-46_IGHD7-27*01_IGHJ2*01 & L6_IGKJ1*01 (Fab, V domains shown)
VH: QVQLVQSGAEVKKPGASVKVSCKASGYTFTSYYMHWVRQAPGQGLEWMGIINPSGGSTSYAQKFQGRVTMTRDTSTSTVYMELSSLRSEDTAVYYCARANWGYWYFDLWGRGTLVTVSS
VL: not shown
notes: Germline Fab made in E. coli; VH was cloned in Plasmid A (CH1 constant region, His6 and Flag tags) and the kappa VL in Plasmid C (kappa CL); Only the variable domains are tied to this Fab by name

ECL signal [10]: 277 | ECL signal [11]: 234 | ECL signal [12]: 274
B2: Fab VH1-46_IGHD6-13*01_IGHJ4*01 & O1_IGKJ1*01 (Fab, V domains shown)
VH: QVQLVQSGAEVKKPGASVKVSCKASGYTFTSYYMHWVRQAPGQGLEWMGIINPSGGSTSYAQKFQGRVTMTRDTSTSTVYMELSSLRSEDTAVYYCAREGYSSSWYDYFDYWGQGTLVTVSS
VL: DIVMTQTPLSLPVTPGEPASISCRSSQSLLDSDDGNTYLDWYLQKPGQSPQLLIYTLSYRASGVPDRFSGSGSGTDFTLKISRVEAEDVGVYYCMQRIEFPSWTFGQGTKVEIKR
notes: Germline library Fab expressed in E. coli; VH was cloned into Plasmid A (CH1 constant region, His6 and Flag tags); The kappa VL was cloned into Plasmid C (kappa CL)

ECL signal [13]: 490 | ECL signal [14]: 530 | ECL signal [15]: 564 | ECL signal [16]: 654 | ECL signal [17]: 502 | ECL signal [18]: 493
B3: Fab VH4-34_IGHD7-27*01_IGHJ4*01 & L5_IGKJ1*01 (Fab, V domains shown)
VH: QVQLQQWGAGLLKPSETLSLTCAVYGGSFSGYYWSWIRQPPGKGLEWIGEINHSGSTNYNPSLKSRVTISVDTSKNQFSLKLSSVTAADTAVYYCARANWGDYFDYWGQGTLVTVSS
VL: DIQMTQSPSSVSASVGDRVTITCRASQGISSWLAWYQQKPGKAPKLLIYAASSLQSGVPSRFSGSGSGTDFTLTISSLQPEDFATYYCQQANSFPPWTFGQGTKVEIKR
notes: Germline library Fab expressed in E. coli; VH was cloned into Plasmid A, which adds CH1 with His6 and Flag tags
